Biological target: SARS-CoV-2 spike protein bearing furin mutation and truncation in retention sequence (on pseudoviral envelope) (SARS-CoV-2, UniProt P0DTC2 14-1273)
Assay: cell-based or functional assay

| Binder | PV neutralisation IC50 [nM] | PV neutralization % (Ab 1 ug/mL) [%] |
| --- | --- | --- |
| YANG-1302 (antibody, V domains shown) VH: QVQLVESGGGAVQPGRSLRLSCRASGFTFSSFGMNWVRQVPGKGLVWVAGIWYDGRNKYYADSVKGRFTISRENSKNMLYLQMNSLRAEDTAVYYCARDQDSGFDGNWFGPWGQGTMVTVSS VL: SYELTQPPSMSVSPGQTASITCSGDNLGDKYVCWYQQRPGQSPVMVIFQDSTRPSGIPERFSGSNSGNTATLTISGTQAMDEADYYCQAWDSNTAVFGGGTKLTVL | 0.23 | 60.3 |
| YANG-2107 (antibody, V domains shown) VH: QVQLQESGPGLVKPSGTLSLTCAVSGGSIRSSNWWIWVRQSPGKGLEWIGEIYHGGNTNYNPSLKSRVTLSVDKSKNQFSLKLSSVTAADTAVYYCARALYDIGGVFDIWGQGTMVTVSS VL: QSALTQPASVSGSPGQSISISCTGTSSDIGGYNYVSWYQQHPGKAPKLMIYDVSERPSGVSNRFSGSKSGNTASLTISGLQAEDEGDYYCCSYAANSNVVFGGGTKLSVL | 0.3 | 61.2 |
| YANG-2108 (antibody, V domains shown) VH: QVQLQESGPGQVKPSGTLSLTCAVSGGSIRSSNWWIWVRQPPGKGLEWIGEIYHGGNTNYSPSLKSRVSISVDKSKNHFSLNLTSVTAADTAVYYCARALYDVGGVFDIWGQGTMVTVSS VL: QSALTQPASVSGSPGQSITISCTGSSSDVGGYNYVSWYQQHPGKAPKLMIYDVSERPSGVSNRFSGSKSGNTASLTISGLQAEDEGDYYCCSYAANSNVVFGGGTKLSVL | 0.27 | 81.8 |
| YANG-2101 (antibody, V domains shown) VH: EVQLVESGGGLVQPGGSLRLSCAASGFTFSLYDMHWVRQATGKGLEWVAGVGIAGDTIYPDSVKGRFTISRENAKNSFFLQMNRLRAGDTAVYYCVRGGTGTTFFDYWGQGVLVTVSS VL: DIQMTQSPSSLSASVGDRVTVTCRASQDITNYLAWFQQKPGKAPKSLIYSASSLQGGTPSKFSGSGSGTEFTLTISSLQPEDFATYYCQQYNSFPLTFGGGTKVEIK |  | 100 |
| YANG-2103 (antibody, V domains shown) VH: EAQLVESGGGLIQSGGSLRLSCIASGLTVNSNYMNWVRQAPGKGLEWVSVIYSGGTTFYADSVKGRFTISRDNSKNTLYLQMTSLRAEDTAVYYCAREGYGMDVWGQGTTVTVSS VL: SYVLTQPPSVSVAPGKTARINCGGNNFGSKSVHWYQQKPGQAPVLVIYYDSDRPSGIPERFSGSNSGNTATLTISRVEAGDEADYYCQVWDNSSDHFVFGAGTKVTVL |  | 97.7 |
| YANG-1301 (antibody, V domains shown) VH: QVQLVESGGGVVQPGRSLRLSCAASGFTFSSYGMHWVRQAPGKGLEWVAVIWYDGSNKFYADSVKGRFTISRDNSKNTLYLQMNSLKAEDTAVYYCARDTWIGESDTSWLDPWGQGTLVTVSS VL: not shown | 0.52 | 60.4 |
| YANG-2112 (antibody, V domains shown) VH: QVQLVQSGAEVKKPGASVKVSCKVSGFTLTHLSIHWVRQAPGRGLEWMGGFDPVDGQTVYAQNFQGRVTMTEDTSTDTANMDLNNLKSEDTAVYYCATGVVVPAAPYYYSSGMDVWGQGTTVTVSS VL: QSVLTQPPSTSGTPGQRVTISCSGSSSNIAKNYVYWYQQLPGTAPKLLIYRTNQRPSGVPDRFSGSRSGTSASLAISGLRSEDEATYYCATWDDTLSVIFGGGTNLTVL | 0.65 | 88.6 |
| YANG-1303 (antibody, V domains shown) VH: QVQLVQSGTEMKEPGASVKVSCKASGYTFTNYGITWVRQAPGQGLEWMGWLNTNNGDTNYAQKLQGRVTMTTDTSTSTAYMELRSLRSDDTAVYYCARDSVTTYDYWGQGTLVTVSS VL: SYELTQPPSVSVSPGQTARITCSGDALPKKYAYWFQQKSAQAPVLVIYEDSKRPSGIPERFSGSSSGTMATLTINGAQVEDEAAYYCYSLDSSGNHWVFGGGTKLTVL |  | 46.3 |
| YANG-1304 (antibody, V domains shown) VH: QVQLQQWGAGLVKTSETLSLTCAVYGGSFNDHYWSWIRQPPGKGLEWIGEINHSGSTNYNPSLKSRVTMSLDTSKNQFSLKLRSLTAADTAMYYCAIEGIWGQGAMVTVSS VL: SYELTQPPSVSVSPGQTARITCSGDALPIKYVHWYQQKSGQAPVLVIYEDSKRPSGIPERISGSSSGTMATLTMSGAQVEDEADYYCYSTDSSGNHWVFGGGTKLTVL |  | 41.5 |
| YANG-2111 (antibody, V domains shown) VH: GVQLVESGGGLVQPGRSLRLSCAASGFTFDDYALHWVRQVPGKGLEWVSSISWNSDDLGYADSVEGRFTISRDNAKNSLYLQMSSLRTEDTALYYCVKDTRAHYDILAGYRGLDSWGQGTLVTVSS VL: DIVMTQSPLSLPVTPGEPASISCRSTQSLLHSNGYNFLDWYLQKPGQSPQLLIYLGSNRASGVPDRFSGSGSGTDFSLKISRVEAEDIGIYYCIQGLQTPITFGQGTRLEIK | 1.33 | 86.8 |
| YANG-2109 (antibody, V domains shown) VH: QVQLVQSGAEVKKPGSSVKVSCKASGGTFSGYTISWIRQAPGQGLEWMGGIIPSFGSLNYGQKFQDRVSITTDELKSTVYMELSSLNSEDTAIYYCTRESITSGYYYGMAVWGQGTTVTVSS VL: DIQMTQSPSSLSASVGDRVTITCRASQGIRDDLGWFQQKPGKAPKRLISAASSLQSGVPSRFSGSGSGTEFTLTISSLQPEDFATYYCLQHNSYPLTFGGGTKVEIR | 0.5 | 95 |
| YANG-1305 (antibody, V domains shown) VH: QVQLVESGGGVVQPGKSLRLSCAASGFAFSSFGMHWVRQAPGTGLEWLAIISFEGTKKYYADSMKGRITISRDNSKNTLYLQMNSLRAEDTAVYYCAADYGDYDDYYYGVHVWGQGTTVTVSS VL: DIQMTQSPSSLSASVGDRVTITCRASQGIANYLAWYQQKPGKVPKLLIYATSTLQSGVPSRFSGSGSGTDFTLTISSLQPEDVAIYYCQKYDSAPFTFGPGTKVDFK | 0.42 | 60.5 |
| YANG-1401 (antibody, V domains shown) VH: QVHLQESGPGLVKPSGTLSLTCAVSGGSFSQINWWSWVRQSPGKGLEWIGEIYHSGSTNYNPSLKSRVTMSVDKSKNQFSLALNSVTAADTAVYYCARGYYGDNWFDSWGQGTLVTVSS VL: DIQMTQSPSSLSASIGDRVTITCRASQGISNWLVWYQQKPEKAPKSLIYAASSLQSGVPSRFSGSGSGTDFTLTISSLHPEDFATYYCQQYSDYPLTFGGGTKVEIK | 0.53 | 91.6 |
| YANG-1403 (antibody, V domains shown) VH: QVQLVESGGGVVQPGRSLRLSCAASGFTFSNYGMHWVRQAPGKGLEWVAVIWYDGSNKYYADSVKGRFTISRDNSKNTLYLQMNSLRAEDTAVYFCVRETVTDGMDVWGQGTTVTVSL VL: NIQMTQSPSAMSASVGDRVTITCRARQDISNYLAWFQQKPGKVPKHLIYAASSLLSGVPSRFSGSGSGTEFTLTISSLQPEDFATYYCLHHNGYPWTFGQGTKVEIK |  | 99.3 |
| YANG-2106 (antibody, V domains shown) VH: QVQVVESGGGVVQPGRSLRLSCSASGFTFSTYGMHWVRQAPGKGLEWVAVIWYDGSNKYYADSVKGRFIISRDNSKNTLYLQMSSLRPDDTAVYYCVREGVADGMGVWGQGTTVTVSS VL: NIQMTQSPSAMSASVGDRVTITCRARQDISTYLAWFQQKPGKVPKHLIYAASTLLSGVPSRFGGSGSGTEFTLTITSLQPEDFATYYCLHHNNYPWTFGQGTKVEIK |  | 93.3 |
| YANG-1402 (antibody, V domains shown) VH: EVQLVESGGGLIQPGGSLRLSCAASGVTVSSNYMNWVRQAPGKGLEWVSVIYSGGSTYYADSVKGRFTISRDNSKNTLYLQMNSLRVEDTAVYYCARDIGDYGMDVWGQGTTVTVSS VL: DIQLTQAPSFLSASVGDRLTITCWASQGISSYLAWYQQKPGKAPKILIYAASTLQSGVPSRFSGSGSGTEFTLTISSLQPEDFATYYCQQLNSYPLIFGGGTKVEIK |  | 94.5 |
| YANG-2105 (antibody, V domains shown) VH: EVQLVESGGGLIQPGGSLRLSCAASGLTVSSNYMNWVRQAPGKGLEWVSVIYSGGSTFYTDSVKGRFTISRDNSKNTLNLQMNSLRAEDTAVYYCARDLGIRGGMDVWGQGTTVTVSS VL: DIQLIQSPSFLSASVGDRVTITCWASQGISSYLAWYQQKPGKAPNLLIYAASTLQSGVPSRFSGSGSGTEFTLTISSLQPEDFATYYCQQLDGSLTFGGGTKVEIK |  | 99.6 |
| YANG-2102 (antibody, V domains shown) VH: EVKLVESGGGLVQRGGSLRLSCAASGFTFSSHAMYWVRQIPGKGLEWVAGIGVAGDTFYPDSVKGRFTISRENANNSLSLQMDSLRTGDTAIYYCVRDGYSGSYPYHYYGMDVWGQGITVVVSS VL: DIQLTQSPSSLSASVGDSVTITCRASQGIDTYLAWFQQKPGKAPKSLIYVASSLQSGVPSKFSGSGSGTDFTLTISSLLPEDFATYYCQQYKSYPWTFGQGTKVEIK |  | 99.4 |
| YANG-2104 (antibody, V domains shown) VH: EVKLVESGGGLVQPGGSLRLSCAASGFTFSSHAMYWVRQSPGKGLEWVSGIGVAGDTFYVDSVKGRFTISRENARNSLSLQMNSLRAGDTAVYYCARDGYSGTHPYHFYGMDVWGQGITVVVSS VL: DIQMTQSPSSLSASVGDSVTITCRASQDINTYLAWFQQKPGKAPKSLIYVASSLQSGVPSKFSGSGSGTDFTLTISSLLPEDFATYYCQQYKSYPWTFGQGTKVEIK |  | 99.3 |
| YANG-2110 (antibody, V domains shown) VH: EVQLVESGGGLIQPGGSLRLSCAASGFIVSRNYMSWVRQAPGKGLDWVSVIYSGGSTYYADSVKGRFTISRDNSKNTLYLQMNSLRAEDTAVYYCARSIAVAGEGLDSWGQGTLVTVSS VL: EIVMTQSPATLSLSPGDRATLSCRASQSVSNIFISWYQQKPGQAPRLLIYGASIRATDIPARFSGSGSGTDFTLTISSLQPEDFAIYFCQQDYNLPLTFGGGTKVEIK |  | 99.9 |

Reference: patent US20250026813A1 (published 2025)
